Assay results published in the RNAGym collection of RNA variant scans (doi:10.1093/molbev/msab373).

B1: Azoarcus group I ribozyme (parent)
chain: GUGCCUUGCGCCGGGAAACCACGCAAGGGAUGGUGUCAAAUUCGGCGAAACCUAAGCGCCCGCCCGGGCGUAUGGCAACGCCGAGCCAAGCUUCGGCGCCUGCGCCGAUGAAGGUGUAGAGACUAGACGGCACCCACCUAAGGCAAACGCUAUGGUGAAGGCAUAGUCCAGGGAGUGGCGAAAGUCACACAAACCGG

Variants of: B1
Assay: reverse-splicing fitness (ratio to wild type); higher = more active; in vitro selection; Mg2+ level not given
Outline: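 An in vitro group I ribozyme library with randomized positions was T7-transcribed and gel-purified. In triplicate, 10 pmol RNA in EPPS pH 7.5 was reacted with 50 pmoles of a 30-nt RNA substrate for 1 h at 37 °C across several added MgCl2 levels (1–48 mM), then stopped with EDTA. Products were reverse transcribed from a substrate-complementary primer, PCR-amplified and sequenced (HiSeq 4000). Fitness is a variant's read proportion after selection over that before, normalised to wild type.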
In the case of GUGCCUUGCGCCGGGAAACCACGCAAGGGAUGGUGUCAAAUUCGGCGAAACCUAAGCGCCCGCCCGGGCGUAUGGCAACGCGGAGCCAAGCUUCGGCGCCUGCGCCGAUGGAGGUGUAGCGACUAGACGGCACCCACCUAAGGCAAACGUUAUGGUGAAGGCAUAGUCCAGGGAGUGGCGAAAGUCACACAAACCGG, the reverse-splicing fitness is reported as 0.0417.
In the case of GUGCCUUGCGCCGGGAAACCACGCAAGGGAUGGUGUCAAAUUCGGCGAAACCUAAGCGCCCGCCCGGGCGUAUGGCAACGCGGAGCCAAGCUUCGGCGCCUGCGCCGAUGGAGGUGUAGCGACUAGACGGCACCCACCUAAGGCAAACGGUAUGGUGAAGGCAUAGUCUAGGGAGAGGCGAAAGUCACACAAACCGG, the reverse-splicing fitness is reported as 0.00806.
GUGCCUUGCGCCGGGAAACCACGCAAGGGAUGGUGUCAAAUUCGGCGAAACCUAAGCGCCCGCCCGGGCGUAUGGCAACGCGGAGCCAAGCUUCGGCGCCUGCGCCGAUGGAGGUGUAGCGACUAGACGGCACCCACCUAAGGCAAACGGUAUGGUGAAGGCAUAGUCUAGGGAGCGGCGAAAGUCACACAAACCGG showed a reverse-splicing fitness of 0.0135.
Work on GUGCCUUGCGCCGGGAAACCACGCAAGGGAUGGUGUCAAAUUCGGCGAAACCUAAGCGCCCGCCCGGGCGUAUGGCAACGCGGAGCCAAGCUUCGGCGCCUGCGCCGAUGGAGGUGUAGCGACUAGACGGCACCCACCUAAGGCAAACGGUAUGGUGAAGGCAUAGUCUAGGGAGGGGCGAAAGUCACACAAACCGG yielded a reverse-splicing fitness of 0.0076.
With GUGCCUUGCGCCGGGAAACCACGCAAGGGAUGGUGUCAAAUUCGGCGAAACCUAAGCGCCCGCCCGGGCGUAUGGCAACGCGGAGCCAAGCUUCGGCGCCUGCGCCGAUGGAGGUGUAGCGACUAGACGGCACCCACCUAAGGCAAACGGUAUGGUGAAGGCAUAGUCCAGGGAGGGGCGAAAGUCACACAAACCGG the reverse-splicing fitness was 0.00412.
Work on GUGCCUUGCGCCGGGAAACCACGCAAGGGAUGGUGUCAAAUUCGGCGAAACCUAAGCGCCCGCCCGGGCGUAUGGCAACGCGGAGCCAAGCUUCGGCGCCUGCGCCGAUGGAGGUGUAGCGACUAGACGGCACCCACCUAAGGCAAACGGUAUGGUGAAGGCAUAGUCCAGGGAGCGGCGAAAGUCACACAAACCGG yielded a reverse-splicing fitness of 0.0121.
Work on GUGCCUUGCGCCGGGAAACCACGCAAGGGAUGGUGUCAAAUUCGGCGAAACCUAAGCGCCCGCCCGGGCGUAUGGCAACGCGGAGCCAAGCUUCGGCGCCUGCGCCGAUGGAGGUGUAGCGACUAGACGGCACCCACCUAAGGCAAACGGUAUGGUGAAGGCAUAGUCCAGGGAGAGGCGAAAGUCACACAAACCGG yielded a reverse-splicing fitness of 0.00594.
Variant GUGCCUUGCGCCGGGAAACCACGCAAGGGAUGGUGUCAAAUUCGGCGAAACCUAAGCGCCCGCCCGGGCGUAUGGCAACGCGGAGCCAAGCUUCGGCGCCUGCGCCGAUGGAGGUGUAGCGACUAGACGGCACCCACCUAAGGCAAACGUUAUGGUGAAGGCAUAGUCAAGGGAGUGGCGAAAGUCACACAAACCGG has a reverse-splicing fitness of 0.0102.
GUGCCUUGCGCCGGGAAACCACGCAAGGGAUGGUGUCAAAUUCGGCGAAACCUAAGCGCCCGCCCGGGCGUAUGGCAACGCGGAGCCAAGCUUCGGCGCCUGCGCCGAUGGAGGUGUAGCGACUAGACGGCACCCACCUAAGGCAAACGUUAUGGUGAAGGCAUAGUCGAGGGAGUGGCGAAAGUCACACAAACCGG showed a reverse-splicing fitness of 0.00909.
GUGCCUUGCGCCGGGAAACCACGCAAGGGAUGGUGUCAAAUUCGGCGAAACCUAAGCGCCCGCCCGGGCGUAUGGCAACGCGGAGCCAAGCUUCGGCGCCUGCGCCGAUGGAGGUGUAGCGACUAGACGGCACCCACCUAAGGCAAACGUUAUGGUGAAGGCAUAGUCAAGGGAGAGGCGAAAGUCACACAAACCGG gave a reverse-splicing fitness of 0.0199.
Variant GUGCCUUGCGCCGGGAAACCACGCAAGGGAUGGUGUCAAAUUCGGCGAAACCUAAGCGCCCGCCCGGGCGUAUGGCAACGCGGAGCCAAGCUUCGGCGCCUGCGCCGAUGGAGGUGUAGCGACUAGACGGCACCCACCUAAGGCAAACGUUAUGGUGAAGGCAUAGUCAAGGGAGCGGCGAAAGUCACACAAACCGG has a reverse-splicing fitness of 0.0182.
Variant GUGCCUUGCGCCGGGAAACCACGCAAGGGAUGGUGUCAAAUUCGGCGAAACCUAAGCGCCCGCCCGGGCGUAUGGCAACGCGGAGCCAAGCUUCGGCGCCUGCGCCGAUGGAGGUGUAGCGACUAGACGGCACCCACCUAAGGCAAACGUUAUGGUGAAGGCAUAGUCAAGGGAGGGGCGAAAGUCACACAAACCGG has a reverse-splicing fitness of 0.00693.
Variant GUGCCUUGCGCCGGGAAACCACGCAAGGGAUGGUGUCAAAUUCGGCGAAACCUAAGCGCCCGCCCGGGCGUAUGGCAACGCGGAGCCAAGCUUCGGCGCCUGCGCCGAUGGAGGUGUAGCGACUAGACGGCACCCACCUAAGGCAAACGGUAUGGUGAAGGCAUAGUCUAGGGAGUGGCGAAAGUCACACAAACCGG has a reverse-splicing fitness of 0.0104.
In the case of GUGCCUUGCGCCGGGAAACCACGCAAGGGAUGGUGUCAAAUUCGGCGAAACCUAAGCGCCCGCCCGGGCGUAUGGCAACGCGGAGCCAAGCUUCGGCGCCUGCGCCGAUGGAGGUGUAGCGACUAGACGGCACCCACCUAAGGCAAACGGUAUGGUGAAGGCAUAGUCGAGGGAGCGGCGAAAGUCACACAAACCGG, the reverse-splicing fitness is reported as 0.0117.
GUGCCUUGCGCCGGGAAACCACGCAAGGGAUGGUGUCAAAUUCGGCGAAACCUAAGCGCCCGCCCGGGCGUAUGGCAACGCGGAGCCAAGCUUCGGCGCCUGCGCCGAUGGAGGUGUAGCGACUAGACGGCACCCACCUAAGGCAAACGGUAUGGUGAAGGCAUAGUCGAGGGAGGGGCGAAAGUCACACAAACCGG showed a reverse-splicing fitness of 0.00647.
